What was measured:
[1] = target: RLp… (SEQ ID NO: 824), state with N-terminal leucine (Lp…); experiment: single-molecule on-chip sequencing with PS691, PS610 and PS961
[2] = target: … (SEQ ID NO: 823), state with N-terminal leucine (…); experiment: as above

- RS mean PD [1]: 3.4 s
- RS mean PD [2]: 2.45 s
B1: PS961 (designed binder)
chain: MPTAASATESAIEDTPAPARPEVDGRTKPKRQPRYHVVLWDDDDHTYQYVVVMLRSLFGHPPSRGYRMAKEMDTQGRVIVLTTTREHAELKRDQIHAFGRDRLLARSKGSMKASIEAEE

From US20230213527A1, “COMPOSITIONS AND METHODS FOR POLYPEPTIDE ANALYSIS” (Quantum-Si Incorporated, priority 2021, published 2023)
